Data taken from the supplement of paper PMC10567573.
± gives the standard deviation.

Assay: protein stability index of a GFP-peptide fusion (GPS, HEK-293T) (PSI 1-6); higher = more stable
[1] = treatment: DMSO, c terminus: a fixed tail appended
[2] = treatment: MLN4924 1 uM, 8 h, c terminus: a fixed tail appended
[3] = treatment: DMSO, c terminus: native
[4] = treatment: MLN4924 1 uM, 8 h, c terminus: native
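Further: 24-mer peptide tiles fused after GFP, lentivirally expressed, FACS-sorted into six equal bins by GFP/DsRed ratio, decoded by Illumina sequencing, PSI is the read-weighted mean bin number.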

Sequence | protein stability index [1] | protein stability index [2] | protein stability index [3] | protein stability index [4]
PEFDYLKSLEIEEKINKIKWLPQQ [PPP2R2C] | 3.52 ± 0.23 | 3.58 ± 0.2 | – | –
PERRRSPGPAPGSPGELEEDLLLP [WEE1] | 5.33 ± 0.28 | 5.37 ± 0.38 | – | –
PETFWIQRAPQLPTWWPLPTQVPA [SPAG8] | 2.42 ± 0.19 | 2.52 ± 0.15 | – | –
PETLTNLRKGYLFMYNLVQFLGFS [HACD3] | 2.34 ± 0.56 | 2.04 ± 0.34 | – | –
PGDPSKDRAAKRLSLESEGAGEGA [TPPP] | 5.47 ± 0.22 | 5.33 ± 0.38 | – | –
PGEDENPEKASELSQVELQAAPGA [TRIM55] | 5.56 ± 0.27 | 5.72 ± 0.2 | – | –
PGPDTGPDSELSPCIPPGFRNLVA [SPAG8] | 3.79 ± 0.27 | 3.94 ± 0.17 | – | –
PHAMTIQELVDYVNARQKQGIYEE [PTPN9] | 3.23 ± 0.21 | 3.25 ± 0.41 | – | –
PHTPQTPGQGGPASTPAQTAAGGQ [NR2F2] | 5.3 ± 0.18 | 5.27 ± 0.23 | – | –
PHVIVSTTGPNPFTTLTDRELEEY [ADD1] | 4.83 ± 0.17 | 4.91 ± 0.091 | – | –
PIPVVFVLRHFHLLSDGSNTLSVS [SLC6A17] | 2.83 ± 0.81 | 2.84 ± 0.47 | – | –
PKRMPSGRGGRDRFTAESYTVLGD [FSD1] | 4.11 ± 0.33 | 4.3 ± 0.22 | – | –
PLCMLLLIDHLALRARNYEYLIRL [TCF25] | 3.43 ± 1.1 | 2.92 ± 0.55 | – | –
PLHLAAQRGHYRVARILIDLCSDV [RIPK4] | 2.42 ± 0.44 | 2.31 ± 0.19 | – | –
PLHLSALRDDVLCARMLYNYGADT [ASB7] | 2.27 ± 0.15 | 2.48 ± 0.38 | – | –
PLHVHEEEGILVAVGQDCYTRIWS [DCAF4] | 2.67 ± 0.3 | 2.74 ± 0.43 | – | –
PLQLLREMRQALQALLKENRLLQE [CBY2] | 2.93 ± 0.28 | 3.4 ± 0.51 | – | –
PLSPIQASSVHLKSESSLPHQTSK | 5.02 ± 0.19 | 5.05 ± 0.088 | – | –
PLTGFLTTVPDGPTQLRALNLTEG [TNXB] | 3.81 ± 0.26 | 3.55 ± 0.22 | – | –
PPAELKAEPGFEPADCKRKEEAGA [CEBPB] | 5.55 ± 0.23 | 5.68 ± 0.13 | – | –
PPDRTLGCWATDAAPAAGLCGAGS [RSPH3] | 3.79 ± 0.15 | 3.71 ± 0.32 | – | –
PPETTETPKCSSPRGQEGSRQDKP [YJU2B] | 5.5 ± 0.36 | 5.54 ± 0.26 | – | –

Sequence | protein stability index [1] | protein stability index [2] | protein stability index [3] | protein stability index [4]
PPLPLHPGGDQGGPPVGPLSLGLA [WAS] | 4.26 ± 0.25 | 4.45 ± 0.15 | – | –
PPMTQAQAVSAPGILNRPPAPTAT [ZNF207] | 5.01 ± 0.18 | 5.09 ± 0.21 | – | –
PPPARGRGAPPPPPSRAPTAAPPP [WASL] | 5.26 ± 0.11 | 5.14 ± 0.21 | – | –
PPPGSLSRTQEPSLGKQKVFIIRK [SOAT2] | 3.51 ± 0.17 | 3.73 ± 0.17 | – | –
PPTSGCLGPVPREDQAEAWGCSCC [TSPAN10] | 4.8 ± 0.3 | 4.74 ± 0.24 | – | –
PQDYKKRLSVELTSSLFRTEPMAW [CTNNB1] | 2.67 ± 0.24 | 2.8 ± 0.21 | – | –
PQFLHEGLSKPVYVINWFMSFGPE [FAM104B] | 2.68 ± 0.71 | 2.97 ± 1.2 | – | –
PQGPPASPSCPEEALAATWEQPWA [PXN] | 4.15 ± 0.39 | 3.96 ± 0.27 | – | –
PQPPDAPQLVSSAREGSSEPWLPL [PLEKHN1] | 4.36 ± 0.25 | 4.56 ± 0.1 | – | –
PQQPVMFAQPMMRPPFGAAAVPGT [SNAP91] | 3.75 ± 0.16 | 3.76 ± 0.3 | – | –
PQTPEPVEGRKHVDVQTELYLEEI [RSPH3] | 3.78 ± 0.24 | 4 ± 0.58 | – | –
PREDGASVNDQCGFGVLRLDADAA [TSPAN10] | 4.38 ± 0.31 | 4.15 ± 0.17 | – | –
PRLQQLLKTLEEGLEGLEDAPPVE [FANCE] | 4.41 ± 0.16 | 4.34 ± 0.3 | – | –
PRNADKIRVKIADLGNACWVHKHF [SRPK2] | 2.26 ± 0.12 | 2.42 ± 1.3 | – | –
PRPGTGQSRSFRILAHLTGTEFMQ [PDLIM7] | 2.47 ± 0.046 | 2.83 ± 0.27 | – | –
PSALVPSVTEYRLDGHTISDLSRS [MYBL2] | 4.25 ± 0.2 | 4.25 ± 0.39 | – | –
PSCLACNRQCLCSAESMVEYGTCM [SPRY1] | 2.84 ± 0.58 | 2.84 ± 0.48 | – | –
PSEICDRLVNEYVELVNAACNFEP [ZER1] | 3.15 ± 0.3 | 3.17 ± 0.23 | – | –
PTPVGAVQQDPALSSNREAHQHRD [CSNK1G3] | 5.37 ± 0.21 | 5.41 ± 0.19 | – | –
PVIPAAALAGYTGSGPIQLWQFLL [ETS1] | 2.68 ± 0.26 | 2.68 ± 0.28 | – | –
PVLGRRAVGGRLRLVPGGQRPADV [HAGHL] | 3.64 ± 0.17 | 3.88 ± 0.36 | – | –
PVMDVWARKQDMNTKRAIHTLAVM [KLHL14] | 2.34 ± 0.1 | 2.33 ± 0.17 | – | –

Sequence | protein stability index [1] | protein stability index [2] | protein stability index [3] | protein stability index [4]
PVTCCDVSSNNRLVVTGSGEHASV [TLE6] | 4.19 ± 0.22 | 4.37 ± 0.16 | – | –
QAGDKDLDGQLDFEEFVHYLQDHE [SLC25A25] | 5.19 ± 0.23 | 4.96 ± 0.23 | – | –
QALKRKKRFEKQLTQIDGTLSTIE [CHMP4C] | 4.05 ± 0.18 | 3.96 ± 0.23 | – | –
QAQPGEATSGPPGIQPGQEPPVTM [PALM] | 5.6 ± 0.19 | 5.33 ± 0.24 | – | –
QARLRDVSRREGALGWAPAAPPPL [ZBED3] | 3.44 ± 0.41 | 3.6 ± 0.35 | – | –
QCDHCERCFYTRKDVRRHLVVHTG [PLAGL1] | 2.91 ± 0.074 | 3.19 ± 0.27 | – | –
QDELRNRSVKVICLGSLASKLSRK [FAN1] | 2.96 ± 0.32 | 3.17 ± 0.36 | – | –
QDEVPDEVENQFILRLPLEHACTV [TAF7L] | 4.395 ± 0.043 | 4.47 ± 0.13 | – | –
QDLVELYLTNCEKLSAKSLQTLRS [ZER1] | 2.1 ± 0.2 | 2.54 ± 0.21 | – | –
QDQGYKTLRLRENCVLSSSPNPFP [ZNF8] | 3.25 ± 0.11 | 3.43 ± 0.22 | – | –
QDSTRTVGERLQDTHSWKSELQRE [TEKT4] | 4.88 ± 0.36 | 4.96 ± 0.27 | – | –
QEFSDVERAIETLIKNFHQYSVEG [S100A14] | 2.33 ± 0.33 | 2.59 ± 0.43 | – | –
QEKARQLLGRLKPSHTSRTLILS [MYBL2] | – | – | 2.12 ± 0.29 | 2.32 ± 0.042
QEQLLECNKLCGRGQSRQLSPET [SLC2A12] | – | – | 4.21 ± 0.43 | 4.61 ± 0.46
QFHCHKAVLASCSQYFRSLFSSHP [KLHL14] | 2.95 ± 0.43 | 2.81 ± 0.4 | – | –
QFLDIGPDVTRVGLLQYGSTVKNE [MATN2] | 3.55 ± 0.14 | 3.65 ± 0.45 | – | –
QFSRGDFVVEYHGDLIEITDAKKR [KMT5A] | 4.13 ± 0.93 | 4.15 ± 0.059 | – | –
QGQYETIERLRSLSPKIMQEAFLV [TBC1D10A] | 2.32 ± 0.21 | 2.22 ± 0.27 | – | –
QGSAVTLKTSKMALSPSATAKRIN [CDC14A] | 4.22 ± 0.25 | 4.44 ± 0.18 | – | –
QGYTINVPWNQVGMRDADYIAAFL [HDAC6] | 2.25 ± 0.22 | 2.46 ± 0.37 | – | –
QHGFFRRTADEATNTGPAGSSAST [DYRK1B] | 5.02 ± 0.19 | 4.93 ± 0.16 | – | –
